Source: patent publication US20200377595A1 (Chugai, published 2020)

T1: biotin-labeled cynomolgus monkey CD137 fused to human IgG1 Fc fragment (cynomolgus monkey; human, UniProt Q07011 24-186, limits assumed, biotin-labeled)
T1 construct: also called cyno CD137-Fc; not shown: human IgG1 Fc fragment
T1 chain: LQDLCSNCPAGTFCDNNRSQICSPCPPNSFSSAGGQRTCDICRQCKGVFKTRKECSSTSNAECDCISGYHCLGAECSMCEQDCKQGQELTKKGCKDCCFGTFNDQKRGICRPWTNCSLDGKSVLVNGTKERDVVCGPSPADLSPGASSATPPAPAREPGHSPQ

B1: dBBDu197 (antibody, IgG1, V domains shown)
VH: QVQLVESGGGLVQPGRSLRLSCAASGFTFSNAWMHWVRQAPGKGLEWVAQIKDRSNAYAAYYAPSVKGRFTISRDDSKNSIYLQMNSLKTEDTAVYYCHYVHYASASTVLPAFGVDAWGQGTTVTVSS
VL: DIVMTQSPLSLPVTPGEPASISCRSSQSLVHSNRNTYLHWYQQKPGQAPRLLIYKVSNRFSGVPDRFSGSGSGTDFTLKISRVEAEDVGVYYCGQGTQVPYTFGQGTKLEIK
notes: IgG1
B2: dBBDu217 (antibody, IgG1, V domains shown)
VH: QVQLVESGGGLVQPGRSLRLSCAASGFTFSNAWMHWVRQAPGKGLEWVAQIKDRQQGYATYYAPSVKGRFTISRDDSKNSIYLQMNSLKTEDTAVYYCRFVHYHLAGYGYYGVDAWGQGTTVTVSS
VL: DIVMTQSPLSLPVTPGEPASISCRSSQSLVHSNRNTYLHWYQQKPGQAPRLLIYKVSNRFSGVPDRFSGSGSGTDFTLKISRVEAEDVGVYYCGQGTQVPYTFGQGTKLEIK
notes: IgG1
B3: dBBDu174 (antibody, IgG1, V domains shown)
VH: QVQLVESGGGLVQPGRSLRLSCAASGFTFSSAWMHWVRQAPGKGLEWVAQIKDRASAYNAYYAESVKGRFTISRDDSKNSIYLQMNSLKTEDTAVYYCRYVHYPSYVSFLPYYGVDAWGQGTTVTVSS
VL: DIVMTQSPLSLPVTPGEPASISCRSSQSLVHSNRNTYLHWYQQKPGQAPRLLIYKVSNRFSGVPDRFSGSGSGTDFTLKISRVEAEDVGVYYCGQGTQVPYTFGQGTKLEIK
notes: IgG1
B4: dBBDu183 (antibody, IgG1, V domains shown)
VH: QVQLVESGGGLVQPGRSLRLSCAASGFTFSNAWMHWVRQAPGKGLEWVAQIKDKGNAYAAYYAPSVKGRFTISRDDSKNSIYLQMNSLKTEDTAVYYCHYVHYASASTVLPAFGVDAWGQGTTVTVSS
VL: DIVMTQSPLSLPVTPGEPASISCRSSQSLVHSNRNTYLHWYQQKPGQAPRLLIYKVSNRFSGVPDRFSGSGSGTDFTLKISRVEAEDVGVYYCGQGTQVPYTFGQGTKLEIK
notes: IgG1
B5: dBBDu139 (antibody, IgG1, V domains shown)
VH: QVQLVESGGGLVQPGRSLRLSCAASGFTFSNAWMHWVRQAPGKGLEWVAQIKDRGNAYNAYYAESVKGRFTISRDDSKNSIYLQMNSLKTEDTAVYYCRFVHYRHPLLHIQYGVDAWGQGTTVTVSS
VL: DIVMTQSPLSLPVTPGEPASISCRSSQSLVHSNRNTYLHWYQQKPGQAPRLLIYKVSNRFSGVPDRFSGSGSGTDFTLKISRVEAEDVGVYYCGQGTQVPYTFGQGTKLEIK
notes: IgG1
B6: dBBDu179 (antibody, IgG1, V domains shown)
VH: QVQLVESGGGLVQPGRSLRLSCAASGFTFSNAWMHWVRQAPGKGLEWVAQIKDRSNQYATYYAPSVKGRFTISRDDSKNSIYLQMNSLKTEDTAVYYCHYVHYASASTVLPAFGVDAWGQGTTVTVSS
VL: DIVMTQSPLSLPVTPGEPASISCRSSQSLVHSNRNTYLHWYQQKPGQAPRLLIYKVSNRFSGVPDRFSGSGSGTDFTLKISRVEAEDVGVYYCGQGTQVPYTFGQGTKLEIK
notes: IgG1
B7: dBBDu193 (antibody, IgG1, V domains shown)
VH: QVQLVESGGGLVQPGRSLRLSCAASGFTFSNAWMHWVRQAPGKGLEWVAQIKDRSNQYATYYAPSVKGRFTISRDDSKNSIYLQMNSLKTEDTAVYYCHYVHYSAASTLLPSFGVDAWGQGTTVTVSS
VL: DIVMTQSPLSLPVTPGEPASISCRSSQSLVHSNRNTYLHWYQQKPGQAPRLLIYKVSNRFSGVPDRFSGSGSGTDFTLKISRVEAEDVGVYYCGQGTQVPYTFGQGTKLEIK
notes: IgG1
B8: dBBDu205 (antibody, IgG1, V domains shown)
VH: QVQLVESGGGLVQPGRSLRLSCAASGFTFSNAWMHWVRQAPGKGLEWVAQIKDRSQLYAAYYAPSVKGRFTISRDDSKNSIYLQMNSLKTEDTAVYYCHYVHYASASTVLPAFGVDAWGQGTTVTVSS
VL: DIVMTQSPLSLPVTPGEPASISCRSSQSLVHSNRNTYLHWYQQKPGQAPRLLIYKVSNRFSGVPDRFSGSGSGTDFTLKISRVEAEDVGVYYCGQGTQVPYTFGQGTKLEIK
notes: IgG1
B9: dBBDu167 (antibody, IgG1, V domains shown)
VH: QVQLVESGGGLVQPGRSLRLSCAASGFTFSNAWMHWVRQAPGKGLEWVAQIKDKGNLYAAYYAPSVKGRFTISRDDSKNSIYLQMNSLKTEDTAVYYCHYVHYASAGGGLPGFGVDAWGQGTTVTVSS
VL: DIVMTQSPLSLPVTPGEPASISCRSSQSLVHSNRNTYLHWYQQKPGQAPRLLIYKVSNRFSGVPDRFSGSGSGTDFTLKISRVEAEDVGVYYCGQGTQVPYTFGQGTKLEIK
notes: IgG1
B10: dBBDu204 (antibody, IgG1, V domains shown)
VH: QVQLVESGGGLVQPGRSLRLSCAASGFTFSNAWMHWVRQAPGKGLEWVAQIKDRSNNYATYYAESVKGRFTISRDDSKNSIYLQMNSLKTEDTAVYYCHYVHYASASTVLPAFGVDAWGQGTTVTVSS
VL: DIVMTQSPLSLPVTPGEPASISCRSSQSLVHSNRNTYLHWYQQKPGQAPRLLIYKVSNRFSGVPDRFSGSGSGTDFTLKISRVEAEDVGVYYCGQGTQVPYTFGQGTKLEIK
notes: IgG1
B11: dBBDu186 (antibody, IgG1, V domains shown)
VH: QVQLVESGGGLVQPGRSLRLSCAASGFTFSNAWMHWVRQAPGKGLEWVAQIKDRSNQYATYYAPSVKGRFTISRDDSKNSIYLQMNSLKTEDTAVYYCHYVHYAQASTVLPAFGVDAWGQGTTVTVSS
VL: DIVMTQSPLSLPVTPGEPASISCRSSQSLVHSNRNTYLHWYQQKPGQAPRLLIYKVSNRFSGVPDRFSGSGSGTDFTLKISRVEAEDVGVYYCGQGTQVPYTFGQGTKLEIK
notes: IgG1
B12: dBBDu202 (antibody, IgG1, V domains shown)
VH: QVQLVESGGGLVQPGRSLRLSCAASGFTFSNAWMHWVRQAPGKGLEWVAQIKDKGNAYAAYYAPSVKGRFTISRDDSKNSIYLQMNSLKTEDTAVYYCHYVHYSAASTVLPAFGVDAWGQGTTVTVSS
VL: DIVMTQSPLSLPVTPGEPASISCRSSQSLVHSNRNTYLHWYQQKPGQAPRLLIYKVSNRFSGVPDRFSGSGSGTDFTLKISRVEAEDVGVYYCGQGTQVPYTFGQGTKLEIK
notes: IgG1
B13: dBBDu199 (antibody, IgG1, V domains shown)
VH: QVQLVESGGGLVQPGRSLRLSCAASGFTFSNAWMHWVRQAPGKGLEWVAQIKDKQSGYNTYYAPSVKGRFTISRDDSKNSIYLQMNSLKTEDTAVYYCHYVHYASASTVLPAFGVDAWGQGTTVTVSS
VL: DIVMTQSPLSLPVTPGEPASISCRSSQSLVHSNRNTYLHWYQQKPGQAPRLLIYKVSNRFSGVPDRFSGSGSGTDFTLKISRVEAEDVGVYYCGQGTQVPYTFGQGTKLEIK
notes: IgG1
B14: dBBDu173 (antibody, IgG1, V domains shown)
VH: QVQLVESGGGLVQPGRSLRLSCAASGFTFSNAWMHWVRQAPGKGLEWVAQIKDKGNLYAAYYAPSVKGRFTISRDDSKNSIYLQMNSLKTEDTAVYYCHYVHYASAGGGLSAYGVDAWGQGTTVTVSS
VL: DIVMTQSPLSLPVTPGEPASISCRSSQSLVHSNRNTYLHWYQQKPGQAPRLLIYKVSNRFSGVPDRFSGSGSGTDFTLKISRVEAEDVGVYYCGQGTQVPYTFGQGTKLEIK
notes: IgG1
B15: dBBDu222 (antibody, IgG1, V domains shown)
VH: QVQLVESGGGLVQPGRSLRLSCAASGFTISSAWMHWVRQAPGKGLEWVAQIKDRANGYAAYYAPSVKGRFTISRDDSKNSIYLQMNSLKTEDTAVYYCRYVHYATAYDGFYGFGVDAWGQGTTVTVSS
VL: DIVMTQSPLSLPVTPGEPASISCRSSQSLVHSNRNTYLHWYQQKPGQAPRLLIYKVSNRFSGVPDRFSGSGSGTDFTLKISRVEAEDVGVYYCGQGTQVPYTFGQGTKLEIK
notes: IgG1
B16: dBBDu196 (antibody, IgG1, V domains shown)
VH: QVQLVESGGGLVQPGRSLRLSCAASGFTFSNAWMHWVRQAPGKGLEWVAQIKDRGNAYNAYYAESVKGRFTISRDDSKNSIYLQMNSLKTEDTAVYYCHYVHYASASTVLPAFGVDAWGQGTTVTVSS
VL: DIVMTQSPLSLPVTPGEPASISCRSSQSLVHSNRNTYLHWYQQKPGQAPRLLIYKVSNRFSGVPDRFSGSGSGTDFTLKISRVEAEDVGVYYCGQGTQVPYTFGQGTKLEIK
notes: IgG1
B17: dBBDu189 (antibody, IgG1, V domains shown)
VH: QVQLVESGGGLVQPGRSLRLSCAASGFTFSNAWMHWVRQAPGKGLEWIAQIKDRSNQYATYYAPSVKGRFTISRDDSKNSIYLQMNSLKTEDTAVYYCHYVHYAQASSLLPSFGVDAWGQGTTVTVSS
VL: DIVMTQSPLSLPVTPGEPASISCRSSQSLVHSNRNTYLHWYQQKPGQAPRLLIYKVSNRFSGVPDRFSGSGSGTDFTLKISRVEAEDVGVYYCGQGTQVPYTFGQGTKLEIK
notes: IgG1

Target: T1, biotin-labeled cynomolgus monkey CD137 …
Assay: ELISA, IgG

Binding result, binds:
B1, B2, B3, B4, B5, B6, B7, B8, B9, B10, B11, B12, B13, B14, B15, B16, B17
